# Results: patent US20240352144A1 (UNIVERSIT TSKLINIKUM HAMBURG EPPENDORF, published 2024)
# T1: human CD39 (gene ID 953) (human, UniProt P49961 5-510)
# T1 construct: Cell-surface form: transiently or stably transfected HEK cells, PBMCs, AML cell lines; also called native CD39; human CD39 transfected HEK cells
# T1 sequence: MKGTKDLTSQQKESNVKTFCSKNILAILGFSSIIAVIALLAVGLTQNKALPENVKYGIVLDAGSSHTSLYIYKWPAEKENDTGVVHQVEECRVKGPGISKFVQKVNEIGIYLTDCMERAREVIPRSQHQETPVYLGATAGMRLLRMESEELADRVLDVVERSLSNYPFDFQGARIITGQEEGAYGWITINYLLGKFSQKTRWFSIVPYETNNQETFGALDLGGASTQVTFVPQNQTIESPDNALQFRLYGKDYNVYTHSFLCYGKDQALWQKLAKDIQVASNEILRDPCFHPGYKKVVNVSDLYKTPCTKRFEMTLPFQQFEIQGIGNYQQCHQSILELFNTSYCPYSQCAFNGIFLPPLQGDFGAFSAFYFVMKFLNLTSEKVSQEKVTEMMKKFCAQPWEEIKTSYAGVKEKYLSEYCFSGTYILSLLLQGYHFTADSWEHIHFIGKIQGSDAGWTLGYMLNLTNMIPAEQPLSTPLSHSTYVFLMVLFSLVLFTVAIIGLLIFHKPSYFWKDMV
# B1: SB28 rabbit IgG hcAb (Fc fusion, not shown: a dimerising Fc or GST)
# VHH: QVQLVESGGGLVQPGGSLRLSCAASGSIFNFNAMGWYRQAPGKQRELVAAITSGGSTNYADSVKGRFTISRDNAKNTVYLQMNSLKPEDTAVYYCHGIGGSTWFGEEEYDYWGQGTQVTVSS
# notes: also called family 1
# How the values were obtained:
# human CD39 (gene ID 953) = molecular target: T1, human CD39 (gene ID 953); assay: flow cytometry, rabbit IgG hcAb supernatant on transfected HEK cells
# [1] = molecular target: recombinant human CD39 ectodomain with C-terminal His6x tag (human) (UniProt P49961); assay: BLI (Octet RED96), rabbit IgG hcAb on protein A biosensor, recombinant CD39 ectodomain as analyte at 200 ng/µl
# [2] = molecular target: recombinant human CD39 ectodomain with C-terminal His6x tag (human) (UniProt P49961); assay: BLI (Octet RED96), rabbit IgG hcAb on protein A biosensor, recombinant CD39 ectodomain as analyte
binder,measurement,setting,value
B1,binding result,human CD39 (gene ID 953),binds
same,koff,[1],0.00039 s⁻¹
same,koff,[2],0.0003 s⁻¹
